The results in this text go back to paper PMC7243947, “AcDCXR Is a Cowpea Aphid Effector With Putative Roles in Altering Host Immunity and Physiology” (Frontiers in Plant Science, 2020).

Substrate in data set [1]: CC(=O)C=O
Put plainly: purified protein. As to conditions: 200 μM NADPH (methods; figure legend prints 200 mM), sodium phosphate pH 6.5, methylglyoxal varied. The class given is biochemical, Aphis craccivora.

Substrate in data set [2]: NC(=O)c1ccc[n+]([C@@H]2O[C@H](COP(=O)(O)OP(=O)(O)OC[C@H]3O[C@@H](n4cnc5c(N)ncnc54)[C@H](OP(=O)(O)O)[C@@H]3O)[C@@H](O)[C@H]2O)c1
Briefly: purified protein. The class given is biochemical, Aphis craccivora. Particulars: 200 mM xylitol fixed, NADP+ varied, 100 mM glycine pH 9.5, 3 mM MgCl2, paper speaks of it as constant of xylitol oxidation, varied: cofactor.

B1: AcDCXR (Aphis craccivora) (protein)
chain: MEEFFVGKKFIVTGANAGIGETITKRLVQLGAHVFAVGRDPKKLPPAGPNLTPVCADVGDWDSYDIIKKLGPVHGLVNNAGVAFIESFFDMTQEGWDKTLNINARGIVRISQAVAQNMKDAGIKGSIVNVSSTISERAIPDHTSYCASKGAVNQVTRVMSIELGKLGIRTNNVNPTVVMTKMGAKAWSDPEKSNPILSRIPLGRFAECDDVANVTLFLLSDYSTYVNGVSIPVDGGFLAS
notes: coding region without predicted signal peptide (first 23 of at least 263 residues); pDEST17 N-terminal 6xHis tag, no cleavage told; E. coli ArcticExpress
A word on the Km: it is the substrate concentration at which the rate is half of its maximum. Broadly, the kcat is the maximal rate divided by the concentration of active sites. As to B1, in data set [1], the Km is 1300 µM and the kcat stood at 0.23 s⁻¹. Also, in data set [2], the Michaelis-Menten constant (Km) worked out at 560 µM and the kcat was 1.85 s⁻¹.
